From the PETadex activity labels (doi:10.1002/anie.202203061)

Columns and labels:
[1] = Melting temperature [DSF / Thermofluor]; conditions: pH 7.5; part of the chain shown
PET [2] = experiment: Proxy for plastic degradation [Released monomer concentration (HPLC/LC-MS) (TPA)]
PET [3] = experiment: Proxy for plastic degradation [Released monomer concentration (HPLC/LC-MS) (MHET)]

B1: unnamed (protein)
chain: MNFPRASRLMQAAVLGGLMAVSAAATAQTNPYARGPNPTAASLEASAGPFTVRSFTVSRPSGYGAGTVYYPTNAGGTVGAIAIVPGYTARQSSIKWWGPRLASHGFVVITIDTNSTLDQPSSRSSQQMAALRQVASLNGTSSSPIYGKVDTARMGVMGWSMGGGGSLISAANNPSLKAAAPQAPWDSSTNFSSVTVPTLIFACENDSIAPVNSSALPIYDSMSRNAKQFLEINGGSHSCANSGNSNQALIGKKGVAWMKRFMDNDTRYSTFACENPNSTRVSDFRTANCS
Melting temperature [1]: 42 °C | Proxy for plastic degradation (PET [2]; 30 °C, part of the chain shown): 30 µM | Proxy for plastic degradation (PET [2]; 37 °C, part of the chain shown): 25 µM | Proxy for plastic degradation (PET [2]; 45 °C, part of the chain shown): 20 µM | Proxy for plastic degradation (PET [2]; 55 °C, part of the chain shown): 20 µM | Proxy for plastic degradation (PET [2]; 65 °C, part of the chain shown): 10 µM | Proxy for plastic degradation (PET [3]; 30 °C, part of the chain shown): 3 µM | Proxy for plastic degradation (PET [3]; 37 °C, part of the chain shown): 2 µM | Proxy for plastic degradation (PET [3]; 45 °C, part of the chain shown): 2 µM | Proxy for plastic degradation (PET [3]; 55 °C, part of the chain shown): 1 µM | Proxy for plastic degradation (PET [3]; 65 °C, part of the chain shown): 1 µM

B2: unnamed (protein)
chain: MNKSILEKIAVGTSALLFSVSAFSFTPSPTPDPDPEPQPCQGECDFTRGPAPSSSYLEASSGPYSVNTVNVSRSVSGFGGGTIHYPTNTTGTMGAIAIVPGFLAGESSIAWWGPRLASHGFVVITIATNSTFDQPASRETQLGRALDYVISQSNSNSSDISGMVDSTRVGAMGWSMGGGGALRIASGSRLSAAIPLAPWHTGSNDFDEIDTPTMIIACENDSTAPVRSHASPFYNSIPSTTDKALLEINNGSHSCANGGGSNGGLLGKYGVSWMKRFIDEDTRYSQFLCGPNHASNSAISEYRETCDY
Proxy for plastic degradation (PET [2]; 30 °C): 20 µM | Proxy for plastic degradation (PET [2]; 37 °C): 20 µM | Proxy for plastic degradation (PET [2]; 45 °C): 20 µM | Proxy for plastic degradation (PET [2]; 55 °C): 20 µM | Proxy for plastic degradation (PET [2]; 65 °C): 20 µM | Proxy for plastic degradation (PET [3]; 30 °C): 3 µM | Proxy for plastic degradation (PET [3]; 37 °C): 2 µM | Proxy for plastic degradation (PET [3]; 45 °C): 2 µM | Proxy for plastic degradation (PET [3]; 55 °C): 1 µM | Proxy for plastic degradation (PET [3]; 65 °C): 1 µM
